Experiment: soluble on expression in E. coli; label from the status in PepcDB or PDB records

| Sequence | soluble on expression in E. coli |
| --- | --- |
| MNDETPRCPYNSLYKPLNLIKSKPDGCFKHNGQCTYGKNLVESVDDGNSRTPYNSIYEPLSLNKPKPDGRSSNGKKPVDNEYVNLPVLSEEQKLADKLAAKLRKLEVKEPKSKKRGSKERKKKKSEPVESTYESLATIEGSTNYSGPVTTESLESNVKFHHASQTAYIGVYSSADAEAQVKNRGEFALYHLFEVGNGIDHLTATLPFGGLWIPNRSQTLLAQSTRSILQIVRIDSDETRGHLL | not soluble |
| MSSGSTSTTPRAWLSGSVVTGKCCLLVIRKGQRPGVPFPAPCASGVAVTGRPPCATGGRGRTRPPTGVGEDTKDSCGKGIADETPRRHHGGPATRKAGRATGRSERGHSRGTRPAELMPIPRSPVVVALGAFEISNES | not soluble |
| MNLIEKTREFAATFHEGEPSSHDMSHINRVEALCMEIQKEEGGDLLILSLAALLHDVGVIKEHEEGGDHALYSSEIAIEFLSRAGVEMKTIEAVAYCIQTHRFSGGKRPETVEARILQDADRLDALGAIGIFRSILSMGALRMLKHTTGLDKGSSKKTVYIEDPVEGFNEYMRYKPFTIPERLNTVTAKRIAGERLKIMHIYLEALNLEAGNGKHKPLEHHHHHH | soluble |
| MSTQIKVTPEQLEQAAKTVKNTRSSLEYIHQDLYSQTEYIASQWSGASSDRFYQMFNEAKPMMFNILQELDKIAVELERAAVKFREADELYGGNLVDSDIQEGAMCGKIPPKSEESFFNNKDLNAAWTGISTGFVDGAVDAWEGLISLGDKETWLNMRDAIVNYEETIPAALNALSDSFVNNLWHGDMESREHYAAYGIATLGLGLLGDKGLSKAGQVGKGAAITGFTKGKSLVTNSPAYRNALHILNNYEFKAGNHLSYAGVGSIQKYLQKAAPYTYEGPNGPKTIRLRLGELAGDKHPVTGIRYDLDGFPIFKALSEVKLKEADFKKSRPTHDRICSKALYEQIMKDPKLAAKFTEEEIELFKLGEVPENYTWHHHQEAGRMQLVDYETHRKTGHTGGYKIWGKDSDK | not soluble |
| MSDILKCIGCGAPLQSEDKNKPGFVPEHNMFRDDVICRRCFRLKNYNEVQDVGLESEDFLKLLSGLADKKGIVVNVVDVFDFEGSFINAVKRIVGNKKIILAANKLDLLPKQINKRRVKEWLKRTARKYGLEADDVVLISAEKGWGIDDLLSSIANIRENEDVYIVGTTNVGKSTLINKLIEASVGEKDVVTTSRFPGTTLDMIDIPLDESSFMYDTPGIIQDHQMTHLVSEKELKIIMPKKEIKQRVYQLNEAQTLFFGGLARIDYVSGGKRPLVCFFSNDLNIHRTKTEKANDLWRNQLGDLLTPPGNPQNFDLNELKAVRLETGKEKRDVMISGLGFITIGPGAKVIVRVPKNVDVVLRNSILLEHHHHHH | soluble |
| MSLKPLFGEKDESNISPITKQLTEEEASKVIAEVNGEQILYKDFYFIYSQQAAYYGLTTEDEDSLSDDTKEILNTIKKELLTQLIQQKLAKQKAKEAGYEVTKERLDEASEAIEEMIRNMAEQMKLSSPSEAESRDFLKEARDFINSELKAMRITMDEYIRDTAEYMIVTDFMEDLTKDIVVTDEEIKKYYDEQLKIQQENPEEAAYAEVQLIQPASSRVKHILIALPEEEQQEYQNLKSEGKDEEAEAYLKEKLEAIKPKAEEVLNKAKNGEDFEALIKEYGEDPGMESEQYKDGYTVTKNSGFIKSFEDASLALGVGEISDLVEGPYGYHIIKVYEKTEAKPYTQEEKKSEIESLLKSQKKTNFMNEKMKEWESASTIVRHDDEGHHHHHH | soluble |
| MMKRNILAVIVPALLVAGTANAAEIYNKDGNKVDLYGKAVGLHYFSKGNGENSYGGNGDMTYARLGFKGETQINSDLTGYGQWEYNFQGNNSEGADAQTGNKTRLAFAGLKYADVGSFDYGRNYGVVYDALGYTDMLPEFGGDTAYSDDFFVGRVGGVATYRNSNFFGLVDGLNFAVQYLGKNERDTARRSNGDGVGGSISYEYEGFGIVGAYGAADRTNLQEAQPLGNGKKAEQWATGLKYDANNIYLAANYGETRNATPITNKFTNTSGFANKTQDVLLVAQYQFDFGLRPSIAYTKSKAKDVEGIGDVDLVNYFEVGATYYFNKNMSTYVDYIINQIDSDNKLGVGSDDTVAVGIVYQF | soluble |
| DPIGHLNKLPVAVVNSDTGVTKEGKTINAGEQITHSLVDQQQAKFIEVSADQARKGIADGTYYFAIEFPTDFSQAATSVKDPQPHQAKLNAVYNNANGFLATMLGNQVVGRVLAAVNENLGSQVANQLLVGFNTIGQGLGAAADGAGQLADGSHKAHDGADKLADGSTQLNNGLQQANDGAHKLYDGAGQLDQGIHTASNGADALADGLTKLNAATDTLGNGAGQVSAGVDKLVGVAQQASDAQAQLTVPLVNLSAQLRATGIPQAIDLANSADGIINSINAAGIGPQSDMMTQLSKLRNGASEIHRQLSDPTAQYRAGINSATEGAQKLSTGLHQLSDGSEKLVIGTKTLADGTTKLSAGSQQLTVGASQLSSGLVRLDEGASELSLKLGESKDKIPQFPDDTIADSARNVSTPVAENVARDSLS | not soluble |
| MNYVPDTSVIVDGRFTAFISEREGSNVILPEAMLSEIEHQANEGRAIGFAALEELKKLRKMESEGKISIEIEGERPKEWQIKRAKSGEIDEMIRQVAFQYDATLVTGDIIQRDVAIVKGITVEYLSPPEKIIKNIEE | not soluble |
| MKLDPQTLAHITSATLGNYNRVADDFREGTRDHDVSQNIDALLRHIEGSAPWQILDFGCGPGRDLKTFTAMGHVAVGLDGSERFAEMARAETGCEVFQQNFLELDLPQGRFDGIFANAVLFHIPRQELPRVLRELYATLKPGGVLFSSNPRGQNQEGWQGERYGAYHDLETWRQLLTDAGFAELEHYYRPAGLPRDQQPWLASVWRRLEHHHHHH | not soluble |
| MAHHHHHHMCISELRSLRGHGRNVYIIYDVAKEGTPPPRHFASTSGWGMIAVSFPKVTNYDEWEKQLKAARIIMNCPDGMDVKAMCAWMERDGDTDEQTKYWKMVETHMEKVGPIPRHIFYAKGINARFGAVENALEAINSRYADDRFILPGGGLWYAKDPSQKLVRIVRIRGERGNERFRNAPICYFLGSRSANILAKAMSEKDFLLLVWGVRKTISSAYLEKFCLRALIFGRFFSAMAEELKELNSPAHDIQDTVLKANPGAHPTEICEIPGVGKIDAKQNINHRVLYIPMLRDFPLVDCFFFVESPRRTLVGLQMTTAGEHHTTTSTVRQFTEHLSKFFNGWDEFAQGLSWRDYLCAARRQHADEWLAEMWCRRPAECGRC | not soluble |
| MAHHHHHHMRAVQLVQGRARMCCVPFLFWVCPPPHLFSLSLPTPSLRSCGARTSCVAERSHASRRGGCGLPSPLPAQPTSPPDTRTGDTCICAFSFTPDEVSQTMTDRCYRTLGLDRGAAEADIKRAYRRKALLFHPDRNPNGAEAFKALQGDYEEALTDARRRGARGGGVPPFSSMASPSWDPAAPAAGAAYRFARAAGTACPPFFPEPSPAPLFTDEELFADSIPGGWRDVCARRGASARGGDKAGGRNNAAGRTEEINGSNSCCSQEAAAADARWRRAHGARVPVSAYTFSGPVPPPPPLPSQPSPHLSSSSFTSFCTHTRARASVAGTGSRLSTQAQRNRFVSRECMWKSSSAEALSLDAKQEAGGAGKVGRSRGCDGYTGQNREPVCGSDTGESAEDRVYREAVLLQRRMPALSGKSRGAAAERTRTHSQSDRAFSTEGVPVGSNATFPATRGVYHQRSDLHTSSTTTTTTTSSSTKGERLEAALSQREALCRQCRDTETTLQHEVDDDHAPAFSDDGDASAHPDKGDGAGSTNAALGPSAAGPLAASGRDTSRAGDPFPVKQSACPESNSDDRLRGDLPHRDRIPDECPLLQSENPRGRYTPNPAEVAEMSDMEVYLLASVAEDINQKTQTVMTARLSKEPYSCSASTPRAHQHVYFTCTHPSACEDCYASGVSKCPLCGASGVDRSSPPPSATTTSSSIEKGGTTGASGACTGTRASLASSSAPSPETMYEPVRVHSVLTCGDADA | not soluble |
| MSLRKTVAFGFVGTVLDYAGRGSQRWSKWRPSLCICQQESLVIDRLELLHDARSRSLFETLKRDIASVSPETEVVSVEIELHNPWDFEEVYACLHDFARGYEFQPEKEDYLIHITTGTHVAQICWFLLAEARYLPARLIQSSPPRKKEQPRGAGEVTIIDLDLSLYNAIASRFAEERQQTLDEGHHHHHH | soluble |

— the DeepSol protein solubility set
